What was measured:
Assay in all cases: purified protein, by the assay type
Set-up in all cases: fluorogenic ester hydrolysis, fluorescein release, Michaelis-Menten fit of initial rates
[1] = substrate: N#CC1(C(=O)OCOc2ccc3c(c2)Oc2cc(OCOC(=O)C4(C#N)CC4)ccc2C32OC(=O)c3ccccc32)CC1
Experimental: (§1) The enzyme kinetic activity of LipN was assayed via the hydrolysis of the fluorogenic substrates (Figure 1) in accordance with past kinetic analysis of mycobacterial serine hydrolases.[37],[38],[40],[66],[67] Kinetic assays were run in triplicate on black 96-well plates in a Synergy H1 Hybrid Reader (BioTek). Fluorogenic ester substrates (10 mM in DMSO) were diluted to a starting concentration of 100 μM in PBS containing acetylated BSA (Sigma; 0.1 mg/mL). Eight serial dilutions (1:1; 120 μL into 240 μL total volume) of each substrate were made using PBS–BSA. Fluorogenic substrate dilutions (95 μL) were then transferred to opaque 96-well microplate (Corning, Lowell, MA). Reactions were initiated by quickly adding enzyme (5 μL, 3.0 nM final concentration) to each assay well, mixed, and the fluorescence counts measured every 26–30 s for 4.5 min with a BioTek H1 Synergy multimode plate reader (Biotek Instruments; Winooski, VT) at ambient temperature. The instrument measured relative fluorescence through excitation at λ = 485 nm and emission at λ = 520 nm. The fluorescence change was converted to molar concentrations using a fluorescein standard curve (300–2.3 nM), whose fluorescence was measured simultaneously. The initial rates of the enzyme-catalyzed reactions were measured in triplicate and plotted versus fluorogenic substrate concentration. […] (A) Activation of fluorogenic ester substrates by MmLipN. Each of the substrates is composed of diacyloxymethyl ether fluorescein with varying R-groups. The differing R-groups have been organized into classes and colored based on chemical functionality. All of the substrates were synthesized as described previously.[38],[43] Substrates 6, 10–11, 14–15, 20, 23–30, and 33 were newly synthesized for this characterization of MmLipN. Detailed synthetic characterization is provided in the Supporting Information. (B) Global comparison of the catalytic specificity (kcat/KM) of MmLipN against each of the 33 substrates with ester classes labeled. Catalytic efficiency values (kcat/Km) are given ± SD based on at least three independent kinetic replicates. (C, D) Kinetic activity of MmLipN against high-activity ester substrates 1 (black circles), 7 (blue squares), and 20 (red diamonds) and low-activity ester substrates 12 (green circles), 16 (red squares), 27 (purple diamonds), and 31 (orange squares). Low- and high-activity substrates display classic Michaelis–Menten kinetics with MmLipN and activity above background hydrolysis rates. Traces colored based on ester classification from (A, B). All measurements were completed in at least triplicate and shown ± SD.

[2] = substrate: CC(C)C(=O)OCOc1ccc2c(c1)Oc1cc(OCOC(=O)C(C)C)ccc1C21OC(=O)c2ccccc21
Experimental: as §1

[3] = substrate: O=C1OC2(c3ccc(OCOC(=O)C4(c5ccccc5)CC4)cc3Oc3cc(OCOC(=O)C4(c5ccccc5)CC4)ccc32)c2ccccc21
Experimental: as §1

[4] = substrate: CC1(C)CC1C(=O)OCOc1ccc2c(c1)Oc1cc(OCOC(=O)C3CC3(C)C)ccc1C21OC(=O)c2ccccc21
Experimental: as §1

[5] = substrate: CCCC(=O)OCOc1ccc2c(c1)Oc1cc(OCOC(=O)CCC)ccc1C21OC(=O)c2ccccc21
Experimental: as §1

B1: MmLipN (LipN from M. marinum) (Mycobacterium marinum M) (protein)
chain: MTNSLPGETDLHPETVHATMSWLSRVQNTVTVVGAKVIPWVPDVAKRLITRGRSVIIDGNTLDPALQLMLSGMRVVGLDGLVIDDDLAASRAHMREAMLGFPGPQIHVDVEELTLPGPAGDISARHYRPPGDAAAPLLVFYHGGGWALGDLDTHDAVCRLTCRDAGIHVLAIDYRLSPEDRAPAAIDDAFAAFEWAHAHAAELGALPGRVAVGGDSAGGNLAAVVSQLARDSGGPAPIFQWLIYPRTDFAGRTRSASLFARGFLLTKRDIDWFHSQYLKGSGIEPTDPRVSPLRAESLAGLAPALIAVAGFDPLRDEGENYATALRAAGTPVDLRAMGSLTHGFLNLFPLGGGCAAATSELISALRAHLTRV
notes: E. coli LOBSTR (DE3); Ni-NTA
- Km [1]: 1.7 ± 1.1 µM
- kcat [1]: 0.0012 ± 0.0018 s⁻¹
- kcat/Km [1]: 670 ± 590 M⁻¹ s⁻¹
- Km [2]: 9.5 ± 2.2 µM
- kcat [2]: 0.017 ± 0.014 s⁻¹
- kcat/Km [2]: 1800 ± 800 M⁻¹ s⁻¹
- Km [3]: 13 ± 8 µM
- kcat [3]: 5.8e-05 ± 0.00014 s⁻¹
- kcat/Km [3]: 4.4 ± 5.4 M⁻¹ s⁻¹
- Km [4]: 1.7 ± 1.1 µM
- kcat [4]: 0.0011 ± 0.0018 s⁻¹
- kcat/Km [4]: 660 ± 590 M⁻¹ s⁻¹
- Km [5]: 6.2 ± 0.1 µM
- kcat [5]: 0.062 ± 0.029 s⁻¹
- kcat/Km [5]: 10000 ± 5000 M⁻¹ s⁻¹

From PMC10099132, “Sequence and Structural Motifs Controlling the Broad Substrate Specificity of the Mycobacterial Hormone-Sensitive Lipase LipN” (ACS Omega, 2023)
